The target of series [1] is Cg-His-eGFP-cpSRP43 (Chaetosphaeridium globosum). Description: MST; labeled cpSRP43 (20 nM) or eGFP-Cg-43 (75 nM) constant, cpSRP54 constructs titrated; 300 mM NaCl, 2.7 mM KCl, 10 mM Na2HPO4, 1.8 mM K2HPO4, 5 mM MgCl2, 2 mM DTT, 0.05% Tween20, pH 7.3; Monolith NT.115, MST power 20%, LED power 20%.
Series [2] deals with Chaetosphaeridium globosum cpSRP43(D189Y) (Chaetosphaeridium globosum). The description is as above.
Series [3] concerns Pp-cpSRP54-His (Physcomitrella patens). Description: MST. The following applies: 5 mM Mg2+, MST: 300 mM NaCl, 2.7 mM KCl, 10 mM Na2HPO4, 1.8 mM K2HPO4, 5 mM MgCl2, 2 mM DTT, 0.05% Tween20, pH 7.3, labeled Pp-cpSRP54 10-20 nM, temperature not stated ….
The target of series [4] is At-His-cpSRP43, fluorescently labeled (Arabidopsis thaliana) (UniProt O22265). Description: MST; labeled cpSRP43 (20 nM) or eGFP-Cg-43 (75 nM) constant, cpSRP54 constructs titrated; 300 mM NaCl, 2.7 mM KCl, 10 mM Na2HPO4, 1.8 mM K2HPO4, 5 mM MgCl2, 2 mM DTT, 0.05% Tween20, pH 7.3; Monolith NT.115, MST power 20%, LED power 20%.
Series [5] deals with Pp-His-cpSRP43, fluorescently labeled (Physcomitrella patens). The series is described as above.
Series [6] deals with T1, At-His-cpSRP54 (Arabidopsis thaliana, UniProt P37107 76-564).
T1 construct: cpSRP54 of Arabidopsis thaliana; the results call it 'full-length' as against the M-domain; also called At-His-54; At-54; source: E. coli BL21(DE3) or Rosetta2(DE3), purified (Ni-NTA, desalted); not shown: His tag, N-terminal, kept
T1 sequence (looked up): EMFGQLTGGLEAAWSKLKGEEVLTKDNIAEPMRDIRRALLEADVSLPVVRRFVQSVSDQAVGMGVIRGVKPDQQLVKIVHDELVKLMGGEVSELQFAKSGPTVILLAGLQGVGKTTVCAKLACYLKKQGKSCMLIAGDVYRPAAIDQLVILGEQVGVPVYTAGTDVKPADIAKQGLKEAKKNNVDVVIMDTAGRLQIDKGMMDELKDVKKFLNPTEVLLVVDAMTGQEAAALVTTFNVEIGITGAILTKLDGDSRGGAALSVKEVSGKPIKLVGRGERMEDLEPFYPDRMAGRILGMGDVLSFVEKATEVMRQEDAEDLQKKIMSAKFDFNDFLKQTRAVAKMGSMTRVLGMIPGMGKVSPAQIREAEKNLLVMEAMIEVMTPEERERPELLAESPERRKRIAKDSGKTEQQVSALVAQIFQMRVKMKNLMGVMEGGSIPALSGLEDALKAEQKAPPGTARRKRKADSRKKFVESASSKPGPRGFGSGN
The series is described as above. The following applies: both partners purified.

The target of series [7] is T1, At-His-cpSRP54. Description: pull-down; GST-cpSRP43 constructs on glutathione-sepharose, 20 μg of GST- and His-fusion constructs; eluates by SDS-PAGE and Coomassie staining. The following applies: both partners purified.

Numbering of substitutions follows the chain as printed. Names and notes keep the numbering of the source. Values joined by “and” are separate entries in the source; they are usually repeats but may differ in a detail not shown here. Equal values may be shown once.

For orientation: Kd means the concentration at which binding is half-saturated. A higher Kd goes with a looser complex.

For the molecule Cg-His-cpSRP54M (domain or fragment), the Kd in series [1] is 11000 nM; in series [2] it was 10000 nM and 11000 nM.
As to Ec-SRP RNA, the equilibrium dissociation constant (Kd) in series [3] (one of two replicate values) is 17 nM and 27 nM.
As for At-His-cpSRP54M (domain or fragment), in series [4], the equilibrium dissociation constant (Kd) was 60 nM and 90 nM.
Molecule Pp-cpSRP54-His (natural protein) registered a Kd in series [5] of 9000 nM.
Regarding Pp-cpSRP RNA, the Kd in series [3] was found to be 1300 nM.
In turn, Ot-cpSRP RNA yielded a Kd in series [3] of 185 nM.

B1: At-His-cpSRP43, fluorescently labeled (natural protein, Arabidopsis thaliana, UniProt O22265 57-373, looked up)
chain: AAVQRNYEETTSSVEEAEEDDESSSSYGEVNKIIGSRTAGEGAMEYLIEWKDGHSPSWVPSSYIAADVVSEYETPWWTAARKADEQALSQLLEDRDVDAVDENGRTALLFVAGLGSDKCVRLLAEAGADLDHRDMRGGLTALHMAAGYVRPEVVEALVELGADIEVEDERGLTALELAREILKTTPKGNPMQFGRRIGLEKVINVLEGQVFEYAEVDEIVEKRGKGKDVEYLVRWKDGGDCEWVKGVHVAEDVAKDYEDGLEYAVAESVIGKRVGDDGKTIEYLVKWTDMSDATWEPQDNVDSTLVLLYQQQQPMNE
modifications: fluorescent label on amines (Monolith NT.115 Protein Labeling Kit RED-NHS)
notes: cpSRP43 of Arabidopsis thaliana; the results speak of the 'full-length Arabidopsis thaliana cpSRP subunits'; the construct is not described among the plasmids; also called Ath-His-cpSRP43; At-43; source: E. coli BL21(DE3) or Rosetta2(DE3), purified (Ni-NTA, desalted); not shown: His tag, N-terminal, kept
As to B1, the Kd in series [6] is 50 nM and 60 nM.

B2: At-GST-cpSRP43(Y269D) (natural protein, Arabidopsis thaliana, UniProt O22265 57-373, looked up)
chain: B1 chain with Y213D
notes: cpSRP43 of Arabidopsis thaliana in pGEX4T3, with Y269D; made from the construct of m9; also called pGEX4T3-At-GST-cpSRP43(Y269D); source: E. coli BL21(DE3) or Rosetta2(DE3), purified (glutathione-sepharose); not shown: GST, N-terminal, kept
Consider B2, for which the binding result in series [7] is reported as “binds”.

B3: At-GST-cpSRP43 (natural protein, Arabidopsis thaliana, UniProt O22265 57-373, looked up)
chain: B1 chain
notes: cpSRP43 of Arabidopsis thaliana in pGEX4T3; also called At-GST-43; GST-cpSRP43 from Arabidopsis thaliana; source: E. coli BL21(DE3) or Rosetta2(DE3), purified (glutathione-sepharose); not shown: GST, N-terminal, kept
Take B3: the binding result in series [7] is given as “binds”.

B4: At-GST-cpSRP43(Y269E) (natural protein, Arabidopsis thaliana, UniProt O22265 57-373, looked up)
chain: B1 chain with Y213E
notes: cpSRP43 of Arabidopsis thaliana in pGEX4T3, with Y269E; made from the construct of m9; also called pGEX4T3-At-GST-cpSRP43(Y269E); source: E. coli BL21(DE3) or Rosetta2(DE3), purified (glutathione-sepharose); not shown: GST, N-terminal, kept
As for B4, in series [7], the binding result is “binds”.

The values above are taken from paper PMC5115805, “The Chloroplast SRP Systems of Chaetosphaeridium globosum and Physcomitrella patens as Intermediates in the Evolution of SRP-Dependent Protein Transport in Higher Plants” (PLoS ONE, 2016).
